Article doi:10.1101/2021.05.10.443506

Assays:
[1] = biological target: mCherry-Med1-IDR-NLS-LacI; test: LacO array recruitment
[2] = biological target: mCherry-Nup153-IDR-NLS-LacI; test: LacO array recruitment
Chain of mCherry-Nup153-IDR-NLS-LacI (P49790 2-1475): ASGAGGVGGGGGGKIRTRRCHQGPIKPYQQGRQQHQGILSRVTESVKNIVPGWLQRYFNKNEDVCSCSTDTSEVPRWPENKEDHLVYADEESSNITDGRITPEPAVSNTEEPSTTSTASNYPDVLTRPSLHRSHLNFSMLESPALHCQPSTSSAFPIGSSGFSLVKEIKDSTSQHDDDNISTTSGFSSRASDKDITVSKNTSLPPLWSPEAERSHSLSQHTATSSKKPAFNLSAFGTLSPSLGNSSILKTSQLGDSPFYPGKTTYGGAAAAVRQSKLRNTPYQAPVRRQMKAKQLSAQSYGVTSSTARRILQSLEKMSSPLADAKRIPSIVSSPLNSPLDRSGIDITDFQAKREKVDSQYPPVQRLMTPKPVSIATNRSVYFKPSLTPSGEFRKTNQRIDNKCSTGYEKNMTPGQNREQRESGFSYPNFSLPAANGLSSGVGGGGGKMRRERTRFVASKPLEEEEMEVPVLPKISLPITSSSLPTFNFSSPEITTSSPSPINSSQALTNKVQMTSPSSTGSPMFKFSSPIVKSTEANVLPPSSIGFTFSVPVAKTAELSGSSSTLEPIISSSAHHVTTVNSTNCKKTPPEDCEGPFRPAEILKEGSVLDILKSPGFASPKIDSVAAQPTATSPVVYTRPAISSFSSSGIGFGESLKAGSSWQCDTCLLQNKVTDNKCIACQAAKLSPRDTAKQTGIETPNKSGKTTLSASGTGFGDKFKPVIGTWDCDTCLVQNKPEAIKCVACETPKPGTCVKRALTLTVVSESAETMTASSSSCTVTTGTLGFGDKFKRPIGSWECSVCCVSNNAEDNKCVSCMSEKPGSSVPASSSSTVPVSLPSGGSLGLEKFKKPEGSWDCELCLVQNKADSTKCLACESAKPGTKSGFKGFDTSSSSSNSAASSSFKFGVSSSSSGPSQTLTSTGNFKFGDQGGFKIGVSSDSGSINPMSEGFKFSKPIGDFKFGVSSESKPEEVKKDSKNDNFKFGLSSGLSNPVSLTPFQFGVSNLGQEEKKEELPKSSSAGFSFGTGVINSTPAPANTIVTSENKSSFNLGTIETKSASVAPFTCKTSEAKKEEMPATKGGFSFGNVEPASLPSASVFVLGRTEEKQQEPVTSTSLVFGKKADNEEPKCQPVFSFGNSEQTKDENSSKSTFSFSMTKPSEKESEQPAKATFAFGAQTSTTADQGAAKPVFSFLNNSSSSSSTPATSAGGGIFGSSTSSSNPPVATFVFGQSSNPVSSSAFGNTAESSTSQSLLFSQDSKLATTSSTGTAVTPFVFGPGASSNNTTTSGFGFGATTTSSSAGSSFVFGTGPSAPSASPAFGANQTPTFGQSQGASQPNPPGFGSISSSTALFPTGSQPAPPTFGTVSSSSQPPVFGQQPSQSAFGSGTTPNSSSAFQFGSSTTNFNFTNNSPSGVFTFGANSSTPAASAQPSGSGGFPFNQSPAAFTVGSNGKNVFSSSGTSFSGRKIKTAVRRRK

Chain of mCherry-Med1-IDR-NLS-LacI (Q15648 whole entry): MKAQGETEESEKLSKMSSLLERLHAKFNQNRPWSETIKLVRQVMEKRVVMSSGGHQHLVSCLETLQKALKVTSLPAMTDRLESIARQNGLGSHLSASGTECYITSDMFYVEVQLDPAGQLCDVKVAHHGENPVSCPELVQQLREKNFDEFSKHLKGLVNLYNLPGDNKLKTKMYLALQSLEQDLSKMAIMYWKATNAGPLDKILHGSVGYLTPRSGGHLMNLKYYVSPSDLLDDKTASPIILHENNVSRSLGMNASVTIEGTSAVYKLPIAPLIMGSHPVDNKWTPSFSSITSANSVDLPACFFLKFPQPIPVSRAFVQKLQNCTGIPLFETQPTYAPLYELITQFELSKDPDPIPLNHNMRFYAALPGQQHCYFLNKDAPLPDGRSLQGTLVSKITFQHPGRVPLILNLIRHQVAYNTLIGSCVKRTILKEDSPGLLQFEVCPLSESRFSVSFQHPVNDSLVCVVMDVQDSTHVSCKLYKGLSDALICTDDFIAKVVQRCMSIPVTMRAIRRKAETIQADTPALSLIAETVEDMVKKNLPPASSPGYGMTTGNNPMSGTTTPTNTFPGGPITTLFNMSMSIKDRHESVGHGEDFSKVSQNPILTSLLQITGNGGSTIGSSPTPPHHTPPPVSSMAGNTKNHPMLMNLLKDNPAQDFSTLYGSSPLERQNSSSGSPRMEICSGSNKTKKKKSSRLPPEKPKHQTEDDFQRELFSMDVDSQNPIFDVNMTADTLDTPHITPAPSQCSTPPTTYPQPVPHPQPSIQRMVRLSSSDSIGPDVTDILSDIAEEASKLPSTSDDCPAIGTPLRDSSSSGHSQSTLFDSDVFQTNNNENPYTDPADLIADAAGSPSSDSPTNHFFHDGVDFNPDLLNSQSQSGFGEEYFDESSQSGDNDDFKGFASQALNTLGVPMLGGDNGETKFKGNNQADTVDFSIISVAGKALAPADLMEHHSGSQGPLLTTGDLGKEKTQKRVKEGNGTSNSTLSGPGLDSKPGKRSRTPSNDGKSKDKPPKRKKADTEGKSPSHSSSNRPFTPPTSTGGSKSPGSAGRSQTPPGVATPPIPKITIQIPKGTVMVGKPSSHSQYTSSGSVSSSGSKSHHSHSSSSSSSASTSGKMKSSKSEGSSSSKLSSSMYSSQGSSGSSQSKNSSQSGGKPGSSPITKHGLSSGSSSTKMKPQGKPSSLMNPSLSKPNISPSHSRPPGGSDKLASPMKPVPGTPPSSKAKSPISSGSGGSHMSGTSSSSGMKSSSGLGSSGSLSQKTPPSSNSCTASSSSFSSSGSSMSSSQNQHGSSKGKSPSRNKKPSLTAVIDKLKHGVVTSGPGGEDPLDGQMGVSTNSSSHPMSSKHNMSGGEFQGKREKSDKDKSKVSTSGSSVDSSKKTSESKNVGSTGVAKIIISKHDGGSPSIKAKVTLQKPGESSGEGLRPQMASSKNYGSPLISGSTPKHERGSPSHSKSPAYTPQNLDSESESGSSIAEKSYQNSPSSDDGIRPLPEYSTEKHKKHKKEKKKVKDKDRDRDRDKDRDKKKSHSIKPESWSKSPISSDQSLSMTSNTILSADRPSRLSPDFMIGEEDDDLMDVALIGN
Chain of EGFP-Med1-NLS (Med1 IDR fused to GFP) (domain or fragment) (Q15648 whole entry, the tested form may be a part): as the sequence (Q15648 whole entry) above

percent of cells with colocalized GFP and mCherry signal [1]	percent of cells with colocalized GFP and mCherry signal [2]	Substance
53 % of cells	67 % of cells	EGFP-PolII CTD52-NLS (domain or fragment)
–	13 % of cells	EGFP-Med1-NLS (Med1 IDR fused to GFP) (domain or fragment)
